Patent US20170313756A1 (Sanofi, published 2017)
[ ]: non-standard residue; d: D form. The star is where a group is joined. Butanoyl(4-Ph) = O=C(CCCc1ccccc1)*; Stearyl = stearyl group

Legend:
[1] = target: T1, melanocortin 1 receptor (MC1R) (UniProt Q01726 1-317, limits assumed); assay: 125I-NDP-MSH competition, HEK293 membranes
T1 construct: whole, on cells; Used as membrane preparations, not whole cells; also called MCR-1; MCR1
Source text: (§1) The mixtures were filtered through 96-well GFC filters (Millipore, Billerica, Mass.), washed 3 times with binding buffer without BSA, dried and counted.

[2] = target: T2, melanocortin 3 receptor (MC3R) (UniProt P41968 1-323, limits assumed); assay: 125I-NDP-MSH competition, HEK293 membranes
T2 construct: whole, on cells; Membrane preparations; also called MCR-3
T2 sequence (P41968 whole entry): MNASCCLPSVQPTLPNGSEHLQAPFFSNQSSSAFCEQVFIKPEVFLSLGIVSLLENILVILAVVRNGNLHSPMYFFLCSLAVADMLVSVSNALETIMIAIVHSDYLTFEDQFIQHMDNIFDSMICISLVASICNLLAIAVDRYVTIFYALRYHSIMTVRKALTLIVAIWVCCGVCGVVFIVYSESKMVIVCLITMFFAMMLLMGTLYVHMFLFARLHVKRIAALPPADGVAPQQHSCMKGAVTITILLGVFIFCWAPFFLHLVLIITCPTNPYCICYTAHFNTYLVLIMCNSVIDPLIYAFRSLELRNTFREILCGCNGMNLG
Source text: as §1

[3] = target: T3, melanocortin 5 receptor (MC5R) (UniProt P33032 1-325, limits assumed); assay: 125I-NDP-MSH competition, HEK293 membranes
T3 construct: whole, on cells; Membrane preparations; also called MCR-5
T3 sequence (P33032 whole entry): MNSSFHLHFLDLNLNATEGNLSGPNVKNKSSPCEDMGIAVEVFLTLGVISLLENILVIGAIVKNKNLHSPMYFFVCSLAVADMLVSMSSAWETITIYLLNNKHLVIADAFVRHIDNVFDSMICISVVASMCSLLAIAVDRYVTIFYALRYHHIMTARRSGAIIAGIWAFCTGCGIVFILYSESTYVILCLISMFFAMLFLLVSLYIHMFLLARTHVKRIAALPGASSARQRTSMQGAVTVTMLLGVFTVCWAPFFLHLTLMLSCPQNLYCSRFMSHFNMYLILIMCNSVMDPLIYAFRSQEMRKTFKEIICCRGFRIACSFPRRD
Source text: as §1

[4] = target: mouse MC1R (on murine B16-F1 melanoma cells) (mouse, UniProt Q01727 1-315); assay: cell-based or functional assay
Chain of mouse MC1R (on murine B16-F1 melanoma cells) (Q01727 whole entry): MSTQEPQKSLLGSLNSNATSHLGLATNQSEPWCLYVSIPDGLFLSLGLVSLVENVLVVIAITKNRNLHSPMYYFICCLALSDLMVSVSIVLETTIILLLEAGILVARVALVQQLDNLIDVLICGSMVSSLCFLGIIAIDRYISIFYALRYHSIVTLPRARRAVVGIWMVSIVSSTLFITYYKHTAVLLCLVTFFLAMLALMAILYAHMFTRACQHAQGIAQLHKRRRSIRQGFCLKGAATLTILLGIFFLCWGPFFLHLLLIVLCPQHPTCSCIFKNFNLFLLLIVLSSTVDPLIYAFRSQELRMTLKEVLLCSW

T1 sequence (Q01726 whole entry): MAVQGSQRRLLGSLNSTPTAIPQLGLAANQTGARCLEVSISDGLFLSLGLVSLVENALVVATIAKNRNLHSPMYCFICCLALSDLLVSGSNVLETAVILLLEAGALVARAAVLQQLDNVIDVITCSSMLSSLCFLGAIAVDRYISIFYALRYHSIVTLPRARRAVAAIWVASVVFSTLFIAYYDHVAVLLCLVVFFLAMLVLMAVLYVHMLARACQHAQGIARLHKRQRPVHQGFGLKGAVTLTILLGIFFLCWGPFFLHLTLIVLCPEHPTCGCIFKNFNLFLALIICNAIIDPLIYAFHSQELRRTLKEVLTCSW

| EC50, cAMP in B16-F1 cells [4] | Binder | also measured |
| --- | --- | --- |
| 21 nM | SYSMEHXRWGKPV (N-terminal acetyl (Ac); C-terminal amide; L-cyclohexylalanine (L-Cha) at 7, also called analog 892) [peptide 892] | Ki [1]: 0.51 nM |
| 9700 nM | VPKGWRFHEMSYS (N-terminal acetyl (Ac); C-terminal amide; D-isomers at all residues except Gly 4) [retro-inverso α-MSH] | – |
| 23 nM | Ac-[dV][dP][dK]G[dW][dR]F[dH][dS][dI][dI][dS][dS]-NH2 (SMILES CC[C@@H](C)[C@@H](NC(=O)[C@@H](CO)NC(=O)[C@@H](Cc1c[nH]cn1)NC(=O)[C@H](Cc1ccccc1)NC(=O)[C@@H](CCCNC(=N)N)NC(=O)[C@@H](Cc1c[nH]c2ccccc12)NC(=O)CNC(=O)[C@@H](CCCCN)NC(=O)[C@H]1CCCN1C(=O)[C@H](NC(C)=O)C(C)C)C(=O)N[C@@H](C(=O)N[C@H](CO)C(=O)N[C@H](CO)C(N)=O)[C@H](C)CC) [peptide 880] | – |
| 3600 nM | VPKGWRXHEXSYS (N-terminal acetyl (Ac); C-terminal amide; D-Cha at 7; D-buthionine at 10; D-isomers at all residues except Gly 4) [peptide 890] | – |

More lines, now with the values behind:

| Binder | EC50, cAMP in B16-F1 cells [4] | also measured |
| --- | --- | --- |
| Stearyl-H[dF]RW-NH2 [(Stearyl) HfRW (820)] | – | Ki [1]: 1.3 nM; Ki [2]: 1370 nM; Ki [3]: 860 nM |
| VPKGWRFHEMSYS (N-terminal acetyl (Ac); C-terminal amide; L-His at 8; D-isomers at all other residues except Gly 4) [peptide 895] | 300 nM | – |
| {Butanoyl(4-Ph)}-H[dF]RW-NH2 [(Ph(CH2)3CO) HfRW (819)] | – | Ki [1]: 0.07 nM; Ki [2]: 277 nM; Ki [3]: ~3000 nM |
| VPKGWRFREMSYS (N-terminal acetyl (Ac); C-terminal amide; D-isomers at all residues except Gly 4) [peptide 872] | 2000 nM | – |
| VPKGWRFHEMSYS (N-terminal acetyl (Ac); C-terminal amide; L-Arg at 6; D-isomers at all other residues except Gly 4) [peptide 894] | 212000 nM | – |
| Ac-[dV][dP][dK]G[dW][dR][dF][dH][dS][dI][dI][dS][dS]-NH2 (SMILES CC[C@@H](C)[C@@H](NC(=O)[C@@H](CO)NC(=O)[C@@H](Cc1c[nH]cn1)NC(=O)[C@@H](Cc1ccccc1)NC(=O)[C@@H](CCCNC(=N)N)NC(=O)[C@@H](Cc1c[nH]c2ccccc12)NC(=O)CNC(=O)[C@@H](CCCCN)NC(=O)[C@H]1CCCN1C(=O)[C@H](NC(C)=O)C(C)C)C(=O)N[C@@H](C(=O)N[C@H](CO)C(=O)N[C@H](CO)C(N)=O)[C@H](C)CC) [peptide 886] | 2 nM | – |
| VPKGWRXHEMSYS (N-terminal acetyl (Ac); C-terminal amide; D-cyclohexylalanine (D-Cha) at 7; D-isomers at all residues except Gly 4) [peptide 869] | 14 nM | – |
| VPKGWRFHEXSYS (N-terminal acetyl (Ac); C-terminal amide; D-buthionine at 10; D-isomers at all residues except Gly 4) [peptide 878] | 130 nM | – |
| VPKGWRFHEMSYS (N-terminal acetyl (Ac); C-terminal amide; L-Trp at 5; D-isomers at all other residues except Gly 4) [peptide 893] | 270 nM | – |
